{"source": "patent US4748122A", "about": "“2,5-diketo-D-gluconic acid reductase” (Shionogi & Co., Ltd., priority 1983, dated 1988)", "substrate": "O=C(O)C(=O)[C@@H](O)[C@H](O)C(=O)CO", "assay": "Spectrophotometric enzymatic activity (decrease in absorption at 340 nm), purified enzyme solution of Example 1", "assay_type": "biochemical, Corynebacterium sp. No. 20A-77 mutant (FERM-BP 108)", "conditions": "other: varying concentrations of Ca-25DKG, 0.1M TB pH 7, 30° C.", "data": [{"protein": "25DKG-Rase (Corynebacterium sp. SHS752001) (protein, The enzyme is an intracellular enzyme extracted from the cells of the 2KLG producing strain; made in house; host or cells: natural producer Corynebacterium sp; No. 20A-77 mutant FERM-BP 108, enzyme purified from sonicated cells; not recombinant) PNIPTISLNDGRPFAEPGLGTYNLRGDEGVAAMVAAIDSGYRLLDTAVNYENESEVGRAVRASSVDRDELIVASKIPGRQHGRAEAVDSIRGSLDRLGLDVIDLQLIHWPNPSVGRWLDTWRGMIDAREAGLVRSIGVSNFTEPMLKTLIDETGVTPAVNQVELHPYFPQAALRAFHDEHGIRTESWSPLARRSELLTEQLLQELAVVYGVTPTQVVLRWHVQLGSTPIPKSADPDRQRENADVFGFALTADQVDAISGLERGRLWDGDPDTHEEM", "values": [{"measurement": "Km", "result": "1800 ± 1000", "unit": "µM"}]}]}
